Consider two molecules from patent publication US20260139028A1 (University of California, published 2026).

“And” between values parts separate entries of the source, which are not always exact repeats. Identical values can stand only once.

Experiment [1] deals with integrins on CHO cells (α5β1+ and αvβ3 low), PSGL-1 negative. The experiment can be described thus: cell-based or functional assay.
A further experiment deals with T1, soluble integrin αvβ3 (UniProt P06756 31-992; P05106 27-718).
T1 construct: Soluble integrin used at 1 µg/ml; also called soluble αvβ3
T1 sequence (P06756 31-992, chain 1 of 2): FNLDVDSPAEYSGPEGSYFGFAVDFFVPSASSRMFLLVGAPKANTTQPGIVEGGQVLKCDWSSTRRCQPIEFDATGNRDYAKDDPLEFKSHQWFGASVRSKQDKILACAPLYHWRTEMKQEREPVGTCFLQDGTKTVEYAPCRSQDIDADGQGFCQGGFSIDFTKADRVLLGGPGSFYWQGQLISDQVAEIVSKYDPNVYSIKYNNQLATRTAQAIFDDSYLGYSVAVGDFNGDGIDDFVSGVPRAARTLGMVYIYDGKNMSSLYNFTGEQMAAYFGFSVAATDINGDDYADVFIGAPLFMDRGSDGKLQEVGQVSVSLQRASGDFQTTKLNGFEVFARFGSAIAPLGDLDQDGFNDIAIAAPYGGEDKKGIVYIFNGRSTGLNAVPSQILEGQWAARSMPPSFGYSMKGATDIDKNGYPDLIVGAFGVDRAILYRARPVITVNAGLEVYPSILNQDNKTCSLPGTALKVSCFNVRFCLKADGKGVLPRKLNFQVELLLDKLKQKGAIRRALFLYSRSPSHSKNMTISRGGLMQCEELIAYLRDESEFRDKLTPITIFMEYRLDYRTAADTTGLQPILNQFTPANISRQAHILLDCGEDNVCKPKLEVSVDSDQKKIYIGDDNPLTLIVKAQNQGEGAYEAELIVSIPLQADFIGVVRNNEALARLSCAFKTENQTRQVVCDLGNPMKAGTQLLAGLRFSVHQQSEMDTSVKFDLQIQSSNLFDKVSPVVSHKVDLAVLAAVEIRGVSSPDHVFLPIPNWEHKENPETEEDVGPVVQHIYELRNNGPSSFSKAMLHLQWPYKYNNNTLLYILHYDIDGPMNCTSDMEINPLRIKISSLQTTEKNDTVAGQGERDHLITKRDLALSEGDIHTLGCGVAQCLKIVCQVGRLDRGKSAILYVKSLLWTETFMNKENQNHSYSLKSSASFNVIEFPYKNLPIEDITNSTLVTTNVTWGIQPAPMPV
T1 sequence (P05106 27-718, chain 2 of 2): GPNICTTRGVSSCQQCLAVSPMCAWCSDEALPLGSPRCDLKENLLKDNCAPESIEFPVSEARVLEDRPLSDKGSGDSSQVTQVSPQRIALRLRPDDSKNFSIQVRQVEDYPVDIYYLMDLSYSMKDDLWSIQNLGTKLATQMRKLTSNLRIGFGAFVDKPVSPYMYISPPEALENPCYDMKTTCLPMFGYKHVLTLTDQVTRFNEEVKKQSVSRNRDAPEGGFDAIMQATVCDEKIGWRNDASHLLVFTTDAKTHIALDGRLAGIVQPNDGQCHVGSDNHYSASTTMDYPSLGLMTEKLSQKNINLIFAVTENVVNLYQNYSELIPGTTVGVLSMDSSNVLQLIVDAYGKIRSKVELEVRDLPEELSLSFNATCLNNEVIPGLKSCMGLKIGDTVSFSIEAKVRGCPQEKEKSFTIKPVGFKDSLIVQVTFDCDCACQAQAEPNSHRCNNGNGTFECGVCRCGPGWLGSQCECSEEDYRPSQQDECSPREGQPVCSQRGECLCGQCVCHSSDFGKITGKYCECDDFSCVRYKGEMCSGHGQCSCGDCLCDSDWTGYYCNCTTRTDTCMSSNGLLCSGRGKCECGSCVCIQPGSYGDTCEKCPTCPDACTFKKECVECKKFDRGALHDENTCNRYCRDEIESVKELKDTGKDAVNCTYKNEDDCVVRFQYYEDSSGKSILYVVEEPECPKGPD
The experiment can be described thus: ELISA-type, coated proteins, soluble integrin. (In general: An ELISA detects its analyte on a solid surface through an enzyme-linked reagent.)

Experiment [2] concerns the target T2, soluble recombinant integrin αIIbβ3 (UniProt P08514 32-993; P05106 27-718).
T2 construct: Bought (AgroBio), used at 1 µg/ml; also called soluble αIIbβ3
The experiment can be described thus: ELISA-type, coated proteins, soluble integrin.

B1: C-type lectin domain of CD62P (P-selectin), wild type, residues 1-117 (ligand, not shown: small tags and cut ends)
chain: WTYHYSTKAYSWNISRKYCQNRYTDLVAIQNKNEIDYLNKVLPYYSSYYWIGIRKNNKTWTWVGTKKALTNEAENWADNEPNNKRNNEDCVEIYIKSPSAPGKWNDEHCLKKKHALC
notes: also called the lectin domain; CD62P lectin domain
B1: the adhesion of CHO cells to immobilized lectin domain in experiment [1] is 70% and > 90%. In addition, the “fold binding against the combined lectin and EGF-like domains” value (with soluble integrin αvβ3; in experiment [2]) was approximately 2 fold each time.

B2: CD62P lectin domain mutant R16E/K17E, P16109 42-158 (ligand, not shown: small tags and cut ends)
chain: WTYHYSTKAYSWNISEEYCQNRYTDLVAIQNKNEIDYLNKVLPYYSSYYWIGIRKNNKTWTWVGTKKALTNEAENWADNEPNNKRNNEDCVEIYIKSPSAPGKWNDEHCLKKKHALC
In experiment [1], B2 yielded an adhesion of CHO cells to immobilized lectin domain of 60%.
